Data taken from patent US20190314526A1.

Columns and labels:
Experiment in all cases: cell-based or functional assay
[1] = target: AAV-2 capsid mutant E437A (rAAV-2 virion) (AAV-2) (UniProt P03135)
[2] = target: AAV-2 capsid mutant V571A (rAAV-2 virion) (AAV-2) (UniProt P03135)
[3] = target: AAV-2 capsid mutant G449A/N568A (rAAV-2 virion) (AAV-2) (UniProt P03135)
[4] = target: AAV-2 capsid mutant Q438A (rAAV-2 virion) (AAV-2) (UniProt P03135)
[5] = target: AAV-2 capsid mutant E411A/T413A/G449A/N450A (rAAV-2 virion) (AAV-2) (UniProt P03135)
[6] = target: AAV-2 capsid mutant R334A/G449A (rAAV-2 virion) (AAV-2) (UniProt P03135)
[7] = target: AAV-2 capsid mutant D357N (rAAV-2 virion) (AAV-2) (UniProt P03135)
[8] = target: AAV-2 capsid mutant W365A (rAAV-2 virion) (AAV-2) (UniProt P03135)
[9] = target: AAV-2 capsid mutant T354A (rAAV-2 virion) (AAV-2) (UniProt P03135)
[10] = target: AAV-2 capsid mutant G449A (rAAV-2 virion) (AAV-2) (UniProt P03135)
[11] = target: AAV-2 capsid mutant N568A/V571A (rAAV-2 virion) (AAV-2) (UniProt P03135)
[12] = target: AAV-2 capsid mutant E411A/T413A/G449A/N450A/N568A/V571A (rAAV-2 virion) (AAV-2) (UniProt P03135)
[13] = target: AAV-2 capsid mutant K390A (rAAV-2 virion) (AAV-2) (UniProt P03135)
[14] = target: AAV-2 capsid mutant G128A (rAAV-2 virion) (AAV-2) (UniProt P03135)
[15] = target: AAV-2 capsid mutant V571K (rAAV-2 virion) (AAV-2) (UniProt P03135)
[16] = target: AAV-2 capsid mutant D357E (rAAV-2 virion) (AAV-2) (UniProt P03135)
[17] = target: AAV-2 capsid mutant K569A (rAAV-2 virion) (AAV-2) (UniProt P03135)
[18] = target: AAV-2 capsid mutant S130T (rAAV-2 virion) (AAV-2) (UniProt P03135)
[19] = target: AAV-2 capsid mutant N360H/S361A (rAAV-2 virion) (AAV-2) (UniProt P03135)
[20] = target: AAV-2 capsid mutant T413K (rAAV-2 virion) (AAV-2) (UniProt P03135)
[21] = target: AAV-2 capsid mutant R334A/N568A (rAAV-2 virion) (AAV-2) (UniProt P03135)
[22] = target: AAV-2 capsid mutant K395A (rAAV-2 virion) (AAV-2) (UniProt P03135)
[23] = target: AAV-2 capsid mutant G375P (rAAV-2 virion) (AAV-2) (UniProt P03135)
[24] = target: AAV-2 with a wild-type capsid (rAAV-2 virion) (AAV-2) (UniProt P03135)
[25] = target: AAV-2 capsid mutant H134Q (rAAV-2 virion) (AAV-2) (UniProt P03135)
[26] = target: AAV-2 capsid mutant E418A (rAAV-2 virion) (AAV-2) (UniProt P03135)
[27] = target: AAV-2 capsid mutant S127A (rAAV-2 virion) (AAV-2) (UniProt P03135)
[28] = target: AAV-2 capsid mutant N133A (rAAV-2 virion) (AAV-2) (UniProt P03135)
[29] = target: AAV-2 capsid mutant R448K (rAAV-2 virion) (AAV-2) (UniProt P03135)
[30] = target: AAV-2 capsid mutant H372K (rAAV-2 virion) (AAV-2) (UniProt P03135)
[31] = target: AAV-2 capsid mutant E394A (rAAV-2 virion) (AAV-2) (UniProt P03135)
[32] = target: AAV-2 capsid mutant R334A/G449A/N568A (rAAV-2 virion) (AAV-2) (UniProt P03135)
[33] = target: AAV-2 capsid mutant D377A (rAAV-2 virion) (AAV-2) (UniProt P03135)
[34] = target: AAV-2 capsid mutant S130A (rAAV-2 virion) (AAV-2) (UniProt P03135)
[35] = target: AAV-2 capsid mutant N450A (rAAV-2 virion) (AAV-2) (UniProt P03135)
[36] = target: AAV-2 capsid mutant F396A (rAAV-2 virion) (AAV-2) (UniProt P03135)
[37] = target: AAV-2 capsid mutant Q452A (rAAV-2 virion) (AAV-2) (UniProt P03135)
[38] = target: AAV-2 capsid mutant K407A (rAAV-2 virion) (AAV-2) (UniProt P03135)
[39] = target: AAV-2 capsid mutant E394K (rAAV-2 virion) (AAV-2) (UniProt P03135)
[40] = target: AAV-2 capsid mutant R334A (rAAV-2 virion) (AAV-2) (UniProt P03135)

purified human IgG from >10,000 donors (Panglobulin, ZLB Bioplasma AG)
Fold decrease in neutralizing titer [1]: 2 fold
Fold decrease in neutralizing titer [2]: 3.9 fold
Fold decrease in neutralizing titer [3]: 1.7 fold
Fold decrease in neutralizing titer [4]: 1.3 fold
Fold decrease in neutralizing titer [5]: 1 fold
Fold decrease in neutralizing titer [6]: 3.9 fold
Fold decrease in neutralizing titer [7]: 1.8 fold
Fold decrease in neutralizing titer [8]: 10.4 fold
Fold decrease in neutralizing titer [9]: 2.9 fold
Fold decrease in neutralizing titer [10]: 2.5 fold
Fold decrease in neutralizing titer [11]: 2.5 fold
Fold decrease in neutralizing titer [12]: 1.3 fold
Fold decrease in neutralizing titer [13]: 2.3 fold
Fold decrease in neutralizing titer [14]: 4.1 fold
Fold decrease in neutralizing titer [15]: 1 fold
Fold decrease in neutralizing titer [16]: 1.7 fold
Fold decrease in neutralizing titer [17]: 4 fold
Fold decrease in neutralizing titer [18]: 1.8 fold
Fold decrease in neutralizing titer [19]: 2.1 fold
Fold decrease in neutralizing titer [20]: 2.6 fold
Fold decrease in neutralizing titer [21]: 2.4 fold
Fold decrease in neutralizing titer [22]: 4.9 fold
Fold decrease in neutralizing titer [23]: 1.9 fold
Fold decrease in neutralizing titer [24]: 1 fold
Fold decrease in neutralizing titer [25]: 1.5 fold
Fold decrease in neutralizing titer [26]: 1.5 fold
Fold decrease in neutralizing titer [27]: 2.2 fold
Fold decrease in neutralizing titer [28]: 0.9 fold
Fold decrease in neutralizing titer [29]: 1 fold
Fold decrease in neutralizing titer [30]: 1.1 fold
Fold decrease in neutralizing titer [31]: 1.5 fold
Fold decrease in neutralizing titer [32]: 3 fold
Fold decrease in neutralizing titer [33]: 1.9 fold
Fold decrease in neutralizing titer [34]: 1.4 fold
Fold decrease in neutralizing titer [35]: 1.6 fold
Fold decrease in neutralizing titer [36]: 1.6 fold
Fold decrease in neutralizing titer [37]: 1.3 fold
Fold decrease in neutralizing titer [38]: 3.3 fold
Fold decrease in neutralizing titer [39]: 2.3 fold
Fold decrease in neutralizing titer [40]: 2.2 fold
